Key:
[1] = system: ZFN7264 linker TGLPKPKP (artificial); assay: cell_activity; details: yeast, paired with 7263 ZFN
[2] = system: ZFN7264 linker TGGGGSQKP (artificial); assay: cell_activity; details: yeast, paired with 7263 ZFN
[3] = system: ZFN7264 (host) (artificial); assay: cell_activity; details: yeast, paired with 7263 ZFN
[4] = system: ZFN7264 linker 1e center linker F2-F3 TGSQKP replaced by TVPRPTPPKP (artificial); assay: cell_activity; details: normalized yeast MEL-1 score
[5] = system: ZFN7264 linker TSRPRPKP (artificial); assay: cell_activity; details: yeast, paired with 7263 ZFN
[6] = system: ZFP8196 linker 1c (artificial)
[7] = system: ZFP8196 linker TPGLHRPKP (artificial)
[8] = system: ZFP8196 linker TPDRPISTCKP (artificial)
[9] = system: ZFP8196 linker TPDAPKPKP (artificial)
[10] = system: ZFP8196 linker TPSHTPRPKP (artificial)
[11] = system: ZFP8196 linker TSPRLPAPKP (artificial)
[12] = system: ZFP8196 linker 1f (artificial)
[13] = system: ZFP8196 linker TGYSIPRPKP (artificial)
[14] = system: ZFP8196 linker TCPRPPTRKP (artificial)
[15] = system: ZFP8196 linker TGEGGKP (artificial)
[16] = system: ZFP8196 (host, center linker TGEKP) (artificial)
[17] = system: ZFP8196 linker LRQKDERP (artificial)
[18] = system: ZFP8196 linker 1d (artificial)
[19] = system: ZFP8196 linker TVSPAPCRSKP (artificial)
[20] = system: ZFP8196 linker TSSPRSNAKP (artificial)
[21] = system: ZFP8196 linker TEPRAKPPKP (artificial)
[22] = system: ZFP8196 linker TGGGGSQKP (artificial)
[23] = system: ZFP8196 linker TSINRPFRRPKP center linker F2-F3 TGEKP replaced by TSINRPFRRPKP (artificial); assay: ELONA; details: normalized ELISA score
[24] = system: ZFP8196 linker TPDRPISTCKP center linker F2-F3 TGEKP replaced by TPDRPISTCKP (artificial); assay: ELONA; details: normalized ELISA score
[25] = system: ZFP8196 linker TPSHTPRPKP center linker F2-F3 TGEKP replaced by TPSHTPRPKP (artificial); assay: ELONA; details: normalized ELISA score
[26] = system: ZFP8196 linker TSSPRSNAKP center linker F2-F3 TGEKP replaced by TSSPRSNAKP (artificial); assay: ELONA; details: normalized ELISA score
[27] = system: ZFP8196 linker 2e center linker F2-F3 TGEKP replaced by TPGGKSSRTDRNKP (artificial); assay: ELONA
[28] = system: ZFP8196 linker TVSPAPCRSKP center linker F2-F3 TGEKP replaced by TVSPAPCRSKP (artificial); assay: ELONA; details: normalized ELISA score
[29] = system: ZFP8196 linker TETTRPFRPPKP center linker F2-F3 TGEKP replaced by TETTRPFRPPKP (artificial); assay: ELONA; details: normalized ELISA score
[30] = system: ZFP8196 linker LRQKDGGGSERP (Kim, Pabo) center linker F2-F3 TGEKP replaced by LRQKDGGGSERP (artificial); assay: ELONA
[31] = system: ZFP8196 linker 1c center linker F2-F3 TGEKP replaced by THPRAPIPKP (artificial); assay: ELONA; details: normalized ELISA score
[32] = system: ZFP8196 linker TSPRLPAPKP center linker F2-F3 TGEKP replaced by TSPRLPAPKP (artificial); assay: ELONA; details: normalized ELISA score
[33] = system: ZFP8196 linker TGGGGSGGSQKP (flexible) center linker F2-F3 TGEKP replaced by TGGGGSGGSQKP (artificial); assay: ELONA
[34] = system: ZFP8196 linker LRQKDERP center linker F2-F3 TGEKP replaced by LRQKDERP (artificial); assay: ELONA; details: normalized ELISA score
[35] = system: ZFP8196 linker TEPRAKPPKP center linker F2-F3 TGEKP replaced by TEPRAKPPKP (artificial); assay: ELONA; details: normalized ELISA score
[36] = system: ZFP8196 linker TPGLHRPKP center linker F2-F3 TGEKP replaced by TPGLHRPKP (artificial); assay: ELONA; details: normalized ELISA score
[37] = system: ZFP8196 (host, center linker TGEKP) (artificial); assay: ELONA; details: ELISA normalized to host on 0-bp gap target (reference)
[38] = system: ZFP8196 linker 1f center linker F2-F3 TGEKP replaced by TYPRPIAAKP (artificial); assay: ELONA; details: normalized ELISA score
[39] = system: ZFP8196 linker TASCPRPFRPPKP center linker F2-F3 TGEKP replaced by TASCPRPFRPPKP (artificial); assay: ELONA; details: normalized ELISA score
[40] = system: ZFP8196 linker TGEARPYRPPKP center linker F2-F3 TGEKP replaced by TGEARPYRPPKP (artificial); assay: ELONA; details: normalized ELISA score
[41] = system: ZFP8196 linker TGGGGSQKP center linker F2-F3 TGEKP replaced by TGGGGSQKP (artificial); assay: ELONA; details: normalized ELISA score
[42] = system: ZFP8196 linker 2d center linker F2-F3 TGEKP replaced by TLAPRPYRPPKP (artificial); assay: ELONA
[43] = system: ZFP8196 linker 1d center linker F2-F3 TGEKP replaced by TPNRRPAPKP (artificial); assay: ELONA; details: normalized ELISA score
[44] = system: ZFP8196 linker TGSLRPYRRPKP center linker F2-F3 TGEKP replaced by TGSLRPYRRPKP (artificial); assay: ELONA; details: normalized ELISA score
[45] = system: ZFP8196 linker 2f center linker F2-F3 TGEKP replaced by TPNPHRRTDPSHKP (artificial); assay: ELONA
[46] = system: ZFP8196 linker TGEGGKP center linker F2-F3 TGEKP replaced by TGEGGKP (artificial); assay: ELONA; details: normalized ELISA score
[47] = system: ZFP8196 linker TPDAPKPKP center linker F2-F3 TGEKP replaced by TPDAPKPKP (artificial); assay: ELONA; details: normalized ELISA score
[48] = system: ZFP8196 linker TGYSIPRPKP center linker F2-F3 TGEKP replaced by TGYSIPRPKP (artificial); assay: ELONA; details: normalized ELISA score
[49] = system: ZFP8196 linker TCPRPPTRKP center linker F2-F3 TGEKP replaced by TCPRPPTRKP (artificial); assay: ELONA; details: normalized ELISA score
[50] = system: ZFP8196 linker TNTTRPYRPPKP center linker F2-F3 TGEKP replaced by TNTTRPYRPPKP (artificial); assay: ELONA; details: normalized ELISA score
[51] = normalized ELISA score averaged over 16 2-bp gaps

AAAGCGGCTCCG (double strand) [7264 yeast half-site 0-bp gap]
activity (normalized MEL-1) [1]: 0.04
activity (normalized MEL-1) [2]: 0.28
activity (normalized MEL-1) [3]: 1
activity ([4]; with invariant 7263 ZFN partner): 0.08
activity (normalized MEL-1) [5]: 0.08

AAAGCGTGCTCCG (double strand) [7264 yeast half-site gap T]
activity (normalized MEL-1) [1]: 0.79
activity (normalized MEL-1) [2]: 0.34
activity (normalized MEL-1) [3]: 0.06
activity [4]: 2.34
activity (normalized MEL-1) [5]: 3.38

TTAGATAAACTGACCAAAAGGCTATC (double strand) [8196 target gap AC]
binding signal (normalized ELISA) [6]: 0
binding signal (normalized ELISA) [7]: 0
binding signal (normalized ELISA) [8]: 0.01
binding signal (normalized ELISA) [9]: 0
binding signal (normalized ELISA) [10]: 0.01
binding signal (normalized ELISA) [11]: 0
binding signal (normalized ELISA) [12]: 0
binding signal (normalized ELISA) [13]: 0
binding signal (normalized ELISA) [14]: 0
binding signal (normalized ELISA) [15]: 0
binding signal (normalized ELISA) [16]: 0
binding signal (normalized ELISA) [17]: 0
binding signal (normalized ELISA) [18]: 0.01
binding signal (normalized ELISA) [19]: 0
binding signal (normalized ELISA) [20]: 0
binding signal (normalized ELISA) [21]: 0.01
binding signal (normalized ELISA) [22]: 0

TTAGATAAACTGCAAAAGGCTATC (double strand) [8196 target 0-bp gap]
binding signal [23]: 0.01
binding signal [24]: 0.01
binding signal [25]: 0.02
binding signal [26]: 0.01
binding signal ([27]; normalized ELISA score): 0.005
binding signal [28]: 0.01
binding signal [29]: 0.001
binding signal ([30]; normalized ELISA score): 0.01
binding signal [31]: 0
binding signal [32]: 0.01
binding signal ([33]; normalized ELISA score): 0.019
binding signal [34]: 0.01
binding signal [35]: 0.01
binding signal [36]: 0.04
binding signal [37]: 1
binding signal [38]: 0.01
binding signal [39]: 0.01
binding signal [40]: 0.001
binding signal [41]: 0
binding signal ([42]; normalized ELISA score): 0.005
binding signal [43]: 0
binding signal [44]: 0.001
binding signal ([45]; normalized ELISA score): 0.003
binding signal [46]: 0.1
binding signal [47]: 0.02
binding signal [48]: 0.01
binding signal [49]: 0
binding signal [50]: 0.001

TTAGATAAACTGNNCAAAAGGCTATC (double strand) [8196 targets 2-bp gap, all 16 compositions]
binding signal ([23]; pool of 16 2-bp gaps): 0.57
binding signal [27, 51]: 0.1
binding signal ([29]; pool of 16 2-bp gaps): 0.57
binding signal [30, 51]: 0.003
binding signal [33, 51]: 0.01
binding signal ([39]; pool of 16 2-bp gaps): 0.37
binding signal ([40]; pool of 16 2-bp gaps): 0.61
binding signal [42, 51]: 0.127
binding signal ([44]; pool of 16 2-bp gaps): 0.31
binding signal [45, 51]: 0.219
binding signal ([50]; pool of 16 2-bp gaps): 0.41

Reference: US20110287512
